According to IntAct's records for PubMed 20506337:

B1: AH receptor-interacting protein (Homo sapiens), O00170 (parent)
chain: MADIIARLREDGIQKRVIQEGRGELPDFQDGTKATFHYRTLHSDDEGTVLDDSRARGKPMELIIGKKFKLPVWETIVCTMREGEIAQFLCDIKHVVLYPLVAKSLRNIAVGKDPLEGQRHCCGVAQMREHSSLGHADLDALQQNPQPLIFHMEMLKVESPGTYQQDPWAMTDEEKAKAVPLIHQEGNRLYREGHVKEAAAKYYDAIACLKNLQMKEQPGSPEWIQLDQQITPLLLNYCQCKLVVEEYYEVLDHCSSILNKYDDNVKAYFKRGKAHAAVWNAQEAQADFAKVLELDPALAPVVSRELRALEARIRQKDEEDKARFRGIFSH
partner: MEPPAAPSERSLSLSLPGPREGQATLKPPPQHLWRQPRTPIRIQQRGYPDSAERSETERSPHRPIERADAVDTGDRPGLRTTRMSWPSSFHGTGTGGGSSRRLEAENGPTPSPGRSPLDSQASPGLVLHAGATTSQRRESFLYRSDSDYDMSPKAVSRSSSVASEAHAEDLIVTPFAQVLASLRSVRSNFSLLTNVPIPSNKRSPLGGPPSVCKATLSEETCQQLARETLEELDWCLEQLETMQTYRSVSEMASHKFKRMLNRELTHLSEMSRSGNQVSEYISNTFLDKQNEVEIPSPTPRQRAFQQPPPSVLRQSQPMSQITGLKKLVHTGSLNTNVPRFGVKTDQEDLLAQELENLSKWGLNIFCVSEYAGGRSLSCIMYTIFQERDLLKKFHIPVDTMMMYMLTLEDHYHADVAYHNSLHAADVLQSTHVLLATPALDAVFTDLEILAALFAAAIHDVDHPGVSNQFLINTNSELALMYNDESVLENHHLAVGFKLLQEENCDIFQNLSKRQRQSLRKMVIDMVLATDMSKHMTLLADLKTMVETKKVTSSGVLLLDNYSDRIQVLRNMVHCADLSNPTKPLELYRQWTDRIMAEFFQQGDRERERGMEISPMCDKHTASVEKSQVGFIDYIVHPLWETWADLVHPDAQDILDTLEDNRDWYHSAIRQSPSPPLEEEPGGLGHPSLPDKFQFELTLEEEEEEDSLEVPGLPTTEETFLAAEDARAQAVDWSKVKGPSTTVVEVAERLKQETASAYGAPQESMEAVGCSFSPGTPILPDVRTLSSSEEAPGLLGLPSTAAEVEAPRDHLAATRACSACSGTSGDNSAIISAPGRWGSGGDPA

Variants of: B1
Conditions: with pde4a_rat Pde4a

effect of a mutation on the interaction | Variant
disrupting interaction strength | MADIIARLREDGIQKRVIQEGRGELPDFQDGTKATFHYRTLHSDDEGTVLDDSRARGKPMELIIGKKFKLPVWETIVCTMREGEIAQFLCDIKHVVLYPLVAKSLRNIAVGKDPLEGQRHCCGVAQMREHSSLGHADLDALQQNPQPLIFHMEMLKVESPGTYQQDPWAMTDEEKAKAVPLIHQEGNRLYREGHVKEAAAKYYDAIACLKNLQMKEQPGSPEWIQLDQQITPLLLNYCQCKLVVEEYYEVLDHCSSILNKYDDNVKAYFKWGKAHAAVWNAQEAQADFAKVLELDPALAPVVSRELRALEARIRQKDEEDKARFRGIFSH [R271W]
with no effect | MADIIARLREDGIQKRVIQEGRGELPDFQDGTKATFHYRTLHSDDEGTMLDDSRARGKPMELIIGKKFKLPVWETIVCTMREGEIAQFLCDIKHVVLYPLVAKSLRNIAVGKDPLEGQRHCCGVAQMREHSSLGHADLDALQQNPQPLIFHMEMLKVESPGTYQQDPWAMTDEEKAKAVPLIHQEGNRLYREGHVKEAAAKYYDAIACLKNLQMKEQPGSPEWIQLDQQITPLLLNYCQCKLVVEEYYEVLDHCSSILNKYDDNVKAYFKRGKAHAAVWNAQEAQADFAKVLELDPALAPVVSRELRALEARIRQKDEEDKARFRGIFSH [V49M]
decreasing interaction strength | MADIIARLREDGIQKRVIQEGRGELPDFQDGTKATFHYRTLHSDDEGTVLDDSRARGKPMELIIGKKFKLPVWETIVCTMREGEIAQFLCDIKHVVLYPLVAKSLRNIAVGKDPLEGQRHCCGVAQMREHSSLGHADLDALQQNPQPLIFHMEMLKVESPGTYQQDPWAMTDEEKAKAVPLIHQEGNRLYREGHVKEAAAKYYDAIACLKNLQMKEQPGSPEWIQLDQQITPLLLNYCQCKLVVEEYYEVLDHCSSVLNKYDDNVKAYFKRGKAHAAVWNAQEAQADFAKVLELDPALAPVVSRELRALEARIRQKDEEDKARFRGIFSH [I257V]
decreasing interaction strength | MADIIARLREDGIQKRVIQEGRGELPDFQDGTKATFHYRTLHSDDEGTVLDDSRARGKPMELIIGKKFKLPVWETIVCTMREGEIAQFLCDIKHVVLYPLVAKSLRNIAVGKDPLEGQRHCCGVAQMREHSSLGHADLDALQQNPQPLIFHMEMLKVESPGTYQQDPWAMTDEEKAKAVPLIHQEGNRLYREGHVKEAAAKYYDAIACLKNLQMKEQPGSPEWIQLDQQITPLLLNYCQCKLVVEEYYEVLDHCSSILNKYDDNVKAYFKRGKAHAAVWNAQEAQADFAKVLELDPALVPVVSRELRALEARIRQKDEEDKARFRGIFSH [A299V]
disrupting interaction strength | MADIIARLREDGIQKRVIQEGRGELPDFQDGTKATFHYRTLHSDDEGTVLDDSRARGKPMELIIGKKFKLPVWETIVCTMREGEIAQFLCDIKHVVLYPLVAKSLRNIAVGKDPLEGQRHCCGVAQMREHSSLGHADLDALQQNPQPLIFHMEMLKVESPGTYQQDPWAMTDEEKAKAVPLIHQEGNRLYREGHVKEAAAKYYDAIACLKNLQMKEQPGSPEWIQLDQQITPLLLNYCQCELVVEEYYEVLDHCSSILNKYDDNVKAYFKRGKAHAAVWNAQEAQADFAKVLELDPALAPVVSRELRALEARIRQKDEEDKARFRGIFSH [K241E]
disrupting interaction strength | MADIIARLREDGIQKRVIQEGRGELPDFQDGTKATFHYRTLHSDDEGTVLDDSRARGKPMELIIGKKFKLPVWETIVCTMREGEIAQFLCDIKHVVLYPLVAKSLRNIAVGKDPLEGQRHCCGVAQMREHSSLGHADLDALQQNPQPLIFHMEMLKVESPGTYQQDPWAMTDEEKAKAVPLIHQEGNRLYREGHVKEAAAKYYDAIACLKNLQMKEQPGSPEWIQLDQQITPLLLNYYQCKLVVEEYYEVLDHCSSILNKYDDNVKAYFKRGKAHAAVWNAQEAQADFAKVLELDPALAPVVSRELRALEARIRQKDEEDKARFRGIFSH [C238Y]
decreasing interaction strength | MADIIARLREDGIQKHVIQEGRGELPDFQDGTKATFHYRTLHSDDEGTVLDDSRARGKPMELIIGKKFKLPVWETIVCTMREGEIAQFLCDIKHVVLYPLVAKSLRNIAVGKDPLEGQRHCCGVAQMREHSSLGHADLDALQQNPQPLIFHMEMLKVESPGTYQQDPWAMTDEEKAKAVPLIHQEGNRLYREGHVKEAAAKYYDAIACLKNLQMKEQPGSPEWIQLDQQITPLLLNYCQCKLVVEEYYEVLDHCSSILNKYDDNVKAYFKRGKAHAAVWNAQEAQADFAKVLELDPALAPVVSRELRALEARIRQKDEEDKARFRGIFSH [R16H]
disrupting interaction strength | MADIIARLREDGIQKRVIQEGRGELPDFQDGTKATFHYRTLHSDDEGTVLDDSRARGKPMELIIGKKFKLPVWETIVCTMREGEIAQFLCDIKHVVLYPLVARSLRNIAVGKDPLEGQRHCCGVAQMREHSSLGHADLDALQQNPQPLIFHMEMLKVESPGTYQQDPWAMTDEEKAKAVPLIHQEGNRLYREGHVKEAAAKYYDAIACLKNLQMKEQPGSPEWIQLDQQITPLLLNYCQCKLVVEEYYEVLDHCSSILNKYDDNVKAYFKRGKAHAAVWNAQEAQADFAKVLELDPALAPVVSRELRALEARIRQKDEEDKARFRGIFSH [K103R]
decreasing interaction strength | MADIIARLREDGIQKRVIQEGRGELPDFQDGTKATFHYRTLHSDDEGTVLDDSRARGKPMELIIGKKFKLPVWETIVCTMREGEIAQFLCDIKHVVLYPLVAKSLRNIAVGKDPLEGQRHCCGVAQMREHSSLGHADLDALQQNPQPLIFHMEMLKVESPGTYQQDPWAMTDEEKAKAVPLIHQEGNRLYREGHVKEAAAKYYDAIACLKNLQMKEQPGSPEWIQLDQQITPLLLNYCQCKLVVEEYYEVLDHCSSILNKYDDNVKAYFKRGKAHAAVWNAQEAQADFAKVLELDPALAPVVSQELRALEARIRQKDEEDKARFRGIFSH [R304Q]
